Results: PMC10031466, “The ROK kinase N-acetylglucosamine kinase uses a sequential random enzyme mechanism with successive conformational changes upon each substrate binding” (The Journal of Biological Chemistry, 2023)

B1: N-acetylglucosamine kinase (NagK) (Vibrio vulnificus CMCP6) (protein)
chain: MYYGFDVGGTKIEFGAFNEKLERVATERVPTPTDDYPLLLETIAGLVAKYDQEFACEGKIGLGLPGMEDADDATVLTVNVPAAKGKPLRADLEAKIGRSVKIENDANCFALSEAWDEELQDAPSVMGLILGTGFGGGLIYEGKVFSGRNNVAGELGHMRLPLDAWFHLGDNAPLLGCGCGKKGCLDSYLSGRGFELLYAHYYGEEKKAIDIIKANAAGDEKAAEHVERFMELLAICFGNIFTANDPHVVALGGGLSNFELIYEEMPKRVPKYLLSVAKCPKIIKAKHGDSGGVRGAAFLNIKG
B2: N-acetylglucosamine kinase (PsNagK) (Plesiomonas shigelloides 302-73) (protein)
chain: MYYGFDIGGTKIEFGAFDADLVRVARERVATPTESYAAFLDAIVTLVNNADAEFGVKGTVGIGIPGIADVETGKLLTSNIPAAMGHTLQRDLEERLQRPVKIENDANCFALSEAWDEDLRGEPSVLGLILGTGVGGGLIFNGKVHSGRANIAGEIGHTRLPYDALKLLGMENAPIFPCGCKNSGCIDNYLSGRGFEQLYDHYFSEKLSAPEIIAHYEQGERRAVQHVERFMELLAICLANIFTCLDPHVVVLGGGLSNFELIYQELPKRLPAHLLHVAKLPKIIKARHGDAGGVRGAAFLNLA
notes: His-tagged protein

Experiments:
Assay in all cases: PK/LD coupled enzyme kinetics (KM app)
Conditions in all cases: Mg2+
[1] = substrate: CC(=O)N[C@@H]1[C@@H](O)[C@H](O)[C@@H](CO)O[C@@H]1O; assay type: biochemical, Vibrio vulnificus
[2] = substrate: Nc1ncnc2c1ncn2[C@@H]1O[C@H](COP(=O)(O)OP(=O)(O)OP(=O)(O)O)[C@@H](O)[C@H]1O; assay type: biochemical, Vibrio vulnificus
[3] = substrate: Nc1ncnc2c1ncn2[C@@H]1O[C@H](COP(=O)(O)OP(=O)(O)OP(=O)(O)O)[C@@H](O)[C@H]1O; assay type: biochemical, Plesiomonas shigelloides

| Protein | Km [1] | Km [2] | Km [3] |
| --- | --- | --- | --- |
| B1 | 210 ± 60 µM | 41 ± 9 µM | – |
| B2 | – | – | 290 ± 20 µM |
